Results from patent US20210332120A1 (JOINT STOCK COMPANY BIOCAD, published 2021).

Key:
[1] = molecular target: T1, human IL-17E (human, UniProt Q9H293 33-177); assay: ELISA, plate coated with human IL-17E, anti-Fab HRP detection
T1 sequence (looked up): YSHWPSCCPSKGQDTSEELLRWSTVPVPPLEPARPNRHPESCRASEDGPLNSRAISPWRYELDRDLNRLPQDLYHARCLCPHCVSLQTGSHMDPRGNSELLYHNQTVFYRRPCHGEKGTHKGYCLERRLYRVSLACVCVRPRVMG
Experimental: (§1) For the binding analysis, the wells of ELISA plates (medium binding from Greiner bio one) were individually coated with 50 μl of human IL-17A, IL-17B, IL-17C, IL-17D, IL-17E, IL-17F, or IL-17A/F (R&D Systems) at a concentration of 1 μg/ml (in 1× coating carbonate buffer), hermetically sealed, and incubated overnight at 4 C. All subsequent steps were performed by standard EIA protocol. To block non-specific binding blocking, buffer BB was added (200 μl of 0.5% skim milk in PBS). Plates were incubated on a shaker for one hour at room temperature. After washes with PBS-Tween, 50 μl of the test antibodies were added to each well at a concentration of 5 μg/ml in PBS-Tween. Plates were again incubated with shaking for one hour at room temperature, then each well of the plates was washed three times with PBS-Tween buffer. After washing, human anti-Fab HRP-conjugated secondary antibody (from Pierce-ThermoScientific) was added (50 μl/well) at a ratio of 1:5000 in PBS-Tween. Plates were shaken on a rotary shaker (50 min, room temperature) and washed three times with PBS-Tween buffer, as described above. […] The color signal was measured at 450 nm using a suitable plate-reader (Tecan-Sunrise; Tecan).

[2] = molecular target: T2, human IL-17B (human, UniProt Q9UHF5 21-180); assay: ELISA, plate coated with human IL-17B, anti-Fab HRP detection
T2 sequence (looked up): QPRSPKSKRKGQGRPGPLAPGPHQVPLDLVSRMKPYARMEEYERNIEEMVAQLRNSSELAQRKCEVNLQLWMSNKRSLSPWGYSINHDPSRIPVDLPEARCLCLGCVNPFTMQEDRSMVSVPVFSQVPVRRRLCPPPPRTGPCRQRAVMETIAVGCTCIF
Experimental: as §1

[3] = molecular target: T3, TNFα multta (multta (so in the source); primate), UniProt P48094 77-233); assay: SPR Biacore T200; ligand amine-coupled, antibody 1 to 25 µg/ml, Heterogeneous Ligand model
T3 construct: The species is printed only as 'multta'; read as Macaca mulatta
T3 sequence (P48094 77-233 limits assumed): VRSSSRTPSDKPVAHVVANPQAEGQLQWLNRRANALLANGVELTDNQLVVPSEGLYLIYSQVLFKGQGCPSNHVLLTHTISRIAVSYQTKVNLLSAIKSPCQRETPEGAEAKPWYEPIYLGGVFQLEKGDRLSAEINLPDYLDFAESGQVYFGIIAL
Experimental: (§2) The analysis was conducted using the Sandwich approach using IL-17A and TNFα preparations produced by Sino Biologics. After activation of the chips, individual ligand was nonspecifically (by NH2 groups) immobilized on the biosensor surface at a concentration of 20 μg/ml. Loading of the antibody was then performed at a concentration from 1 to 25 μg/ml. Thereafter, the sensors were immersed in the running buffer for the complex dissociation step. The flow rate was 10 μl/min.
(§3) Analysis of the obtained data was performed using BIA Evolution 3.1 software and the Heterogeneous Ligand model.

[4] = molecular target: T4, cynomolgus IL-17A (cyno, UniProt A0A2K5TTB0 24-155); assay: as above
T4 construct: also called IL-17A cyno
T4 sequence (A0A2K5TTB0 entry or part of it): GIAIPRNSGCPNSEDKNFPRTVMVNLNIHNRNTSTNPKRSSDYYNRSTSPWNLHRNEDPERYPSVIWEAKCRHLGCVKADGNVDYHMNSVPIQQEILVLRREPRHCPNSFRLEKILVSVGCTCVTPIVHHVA
Experimental: as §2, §3

[5] = molecular target: T5, human IL-17A (human, UniProt Q16552 20-155, limits assumed); assay: SPR Biacore T200; ligand amine-coupled, antibody 1 to 25 µg/ml, Heterogeneous Ligand model; * below the threshold sensitivity of the device
T5 construct: Recombinant preparations from several makers were used; also called IL-17A human; IL-17A-biotin
T5 sequence (Q16552 20-155 limits assumed): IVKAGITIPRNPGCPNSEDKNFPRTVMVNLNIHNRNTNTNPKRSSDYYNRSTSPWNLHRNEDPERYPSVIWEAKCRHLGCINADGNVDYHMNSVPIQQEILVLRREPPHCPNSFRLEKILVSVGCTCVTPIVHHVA
Experimental: as §2, §3

[6] = molecular target: T5, human IL-17A; assay: cell-based or functional assay
[7] = molecular target: T6, rabbit TNFα (rabbit, UniProt P04924 80-235, limits assumed); assay: ELISA, plate coated with rabbit TNFα, anti-Fab HRP detection
T6 sequence (looked up): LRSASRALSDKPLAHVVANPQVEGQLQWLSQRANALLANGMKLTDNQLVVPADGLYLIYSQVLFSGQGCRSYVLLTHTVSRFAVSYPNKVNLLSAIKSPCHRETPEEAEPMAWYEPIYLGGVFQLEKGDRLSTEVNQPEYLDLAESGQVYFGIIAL

[8] = molecular target: T7, human IL-17F (human, UniProt Q96PD4 31-163); assay: BLI OctetRED96
T7 construct: also called IL-17F human
T7 sequence (looked up): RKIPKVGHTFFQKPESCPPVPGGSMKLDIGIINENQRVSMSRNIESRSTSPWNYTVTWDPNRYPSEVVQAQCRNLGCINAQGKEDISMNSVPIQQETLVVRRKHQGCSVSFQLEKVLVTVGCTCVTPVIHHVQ

[9] = molecular target: T8, guinea pig TNFα (guinea pig, UniProt P51435 80-234, limits assumed); assay: ELISA, plate coated with guinea pig TNFα, anti-Fab HRP detection
T8 sequence (looked up): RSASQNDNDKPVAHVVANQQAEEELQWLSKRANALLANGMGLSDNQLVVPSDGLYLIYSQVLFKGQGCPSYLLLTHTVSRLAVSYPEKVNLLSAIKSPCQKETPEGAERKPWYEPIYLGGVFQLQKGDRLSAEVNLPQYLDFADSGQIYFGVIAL

[10] = molecular target: T9, human IL-17C (human, UniProt Q9P0M4 19-197); assay: ELISA, plate coated with human IL-17C, anti-Fab HRP detection
T9 sequence (looked up): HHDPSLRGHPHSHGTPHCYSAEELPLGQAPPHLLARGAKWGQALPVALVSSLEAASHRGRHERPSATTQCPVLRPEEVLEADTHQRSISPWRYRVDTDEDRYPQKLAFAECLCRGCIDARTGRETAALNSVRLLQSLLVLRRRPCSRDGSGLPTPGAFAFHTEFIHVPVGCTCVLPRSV
Experimental: as §1

[11] = molecular target: T10, human IL-17D (human, UniProt Q8TAD2 18-202, limits assumed); assay: ELISA, plate coated with human IL-17D, anti-Fab HRP detection
T10 sequence (looked up): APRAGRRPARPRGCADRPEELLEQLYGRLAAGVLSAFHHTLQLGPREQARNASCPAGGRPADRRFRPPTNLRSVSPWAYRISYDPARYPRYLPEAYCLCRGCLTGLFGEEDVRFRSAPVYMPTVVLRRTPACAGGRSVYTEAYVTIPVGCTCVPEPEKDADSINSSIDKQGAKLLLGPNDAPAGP
Experimental: as §1

[12] = molecular target: T11, mouse TNFα (mouse, UniProt P06804 80-235); assay: ELISA, plate coated with mouse TNFα, anti-Fab HRP detection
T11 sequence (looked up): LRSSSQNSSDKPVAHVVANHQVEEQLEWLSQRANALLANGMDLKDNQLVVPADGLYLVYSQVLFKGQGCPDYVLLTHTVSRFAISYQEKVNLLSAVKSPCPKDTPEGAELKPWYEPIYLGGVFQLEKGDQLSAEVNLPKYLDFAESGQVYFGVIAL

- binding result [1]: no binding (tested: 0,5 ng/ml)
- binding result [2]: no binding (tested: 0,5 ng/ml)
- Kd [3]: ~1 pM
- Kd [4]: ~1 pM
- Kd [5]: < 1 pM
- IC50, IL-17A and TNFα induced IL-6 production, HT1080 cells [6]: 0.02 µg/mL
- IC50, IL-17A-dependent IL-6 production, HT1080 cells [6]: 0.0035 µg/mL
- binding result [7]: no binding (tested: 2 ng/ml)
- Kd [8]: ~4000 pM
- binding result [9]: no binding (tested: 2 ng/ml)
- binding result [10]: no binding (tested: 0,5 ng/ml)
- binding result [11]: no binding (tested: 0,5 ng/ml)
- binding result [12]: no binding (tested: 2 ng/ml)
B1: BCD-121 tri-specific anti-IL-17A/anti-IL-17F/anti-TNFα antibody (bispecific antibody, human IgG1, kappa, L234A L235A)
heavy: not shown
light: EVQLVQSGGGLVQAGGSLRLSCAASGGTFATSPMGWLRQAPGKGTEFVAAISPSGGDRIYADSVKGRFTISRDNAGNFIYLQMNSLKPEDTAVYYCAVRRRFDGTSYYTGDYDSWGQGTLVTVSSGGGSGGGSEGAGSDIQMTQSPSSLSASVGDRVTITCKASQNVGTNVAWYQQKPGKAPKALIYSASFLYSGVPYRFSGSGSGTDFTLTISSLQPEDFATYYCQQYNIFPLTFGQGTKVEIKRTVAAPSVFIFPPSDEQLKSGTASVVCLLNNFYPREAKVQWKVDNALQSGNSQESVTEQDSKDSTYSLSSTLTLSKADYEKHKVYACEVTHQGLSSPVTKSFNRGEC
notes: also called Mab12; VHH-IgG1 (LALA)
